Measurements reported in patent US20260008856A1, “METHODS OF TREATING DISEASE USING ANTI-IL1RAP ANTIBODIES AND ANTIBODY DRUG CONJUGATES” (Bluefin Biomedicine, Inc., priority 2022, published 2026).
One block for each molecule: values may come before it.

Legend:
EOL-1 = assay: Flow cytometry binding to endogenous cell line EOL-1; format: cell-based, human; design: key to binding to EOL-1 by flow cytometry: (−): No binding; (+): Weak binding; (++): Moderate binding; (+++): Strong binding; settings: for binding to EOL-1 by flow cytometry: primary antibody 1 ug/ml
Method: (§1) Staining for flow cytometry was performed in 1× cold PBS with 0.5% BSA. Primary antibodies (1 ug/ml) were incubated with live cells on ice for 30 minutes, after a brief wash, cells were incubated with Alexa Fluro® 488-conjugated anti-human IgG secondary antibody @1:1000 (709-546-149, Jackson ImmunoResearch). Acquisition of the data was performed on a MACSQuant® Flow Cytometers (Miltenyi Biotec) and analyzed with FlowJo software.
(§2) Over 1,000 hits were identified that bind strongly to CHO-human IL1RAP, but not parental CHO cells. 68 clones were selected for molecular cloning. Based on unique CDR3 sequences from the heavy chain variable domain, 35 antibodies from 13 families were confirmed by binding in IL1RAP positive cell lines EOL1 and Karpas 299 (see Table 8) by flow cytometry (MACSQuant® www.miltenybiotec.com).

DMS79 = assay: Flow cytometry binding to endogenous cell line DMS79; format: cell-based; design: key to binding to DMS79 by flow cytometry: (−): No binding; (+): Weak binding; (++): Moderate binding; (+++): Strong binding
Method: as §1

recombinant human IL1RAP = biological target: T1, recombinant human IL1RAP (Homo sapiens, UniProt Q9NPH3); assay: Binding competition binning on Octet; settings: Protein A biosensors
T1 construct: MBP-IL1RAP(S21-T367)-; 8xHis (C); made in house; host or cells: CHO (ExpiCHO transient expression)
Method: Binding Competition binning: Binding competition among different antibodies was determined using a real-time, interferometry assay on an Octet Red™ instrument with Protein A-conjugated biosensors. To assess whether two antibodies competed for binding to a recombinant IL1RAP protein, the assay was performed as follows. Protein A biosensors were first submerged into wells containing 10 ug/mL of individual monoclonal antibodies for 5 minutes. Following the capture step, the biosensors were dipped briefly (15 seconds) into buffer and then any unoccupied sites on the biosensor were saturated by submerging them for 5 minutes into wells containing 100 ug/mL of an irrelevant monoclonal antibody. The Octet™ biosensors were then dipped briefly (15 seconds) in buffer before immersion for 1 minute into wells containing recombinant IL1RAP. The biosensors were dipped briefly (15 seconds) in buffer before immersion for 1 minute into wells containing a second recombinant antibody.
For the control case where the second antibody was the same as the first, there was no increase in signal, because there was no additional binding to the recombinant target.
For the control case where buffer was used instead of the first antibody, no recombinant target bound the non-quenching antibody on the biosensor and no second antibody bound the biosensor.
Selected antibodies were evaluated in pairs for their ability to simultaneously bind recombinant human IL1RAP. The analysis was performed by Octet™ loaded with Protein A Biosensors. A total of five different bins were determined as follows.

H69 = assay: Flow cytometry binding to endogenous cell line H69; format: cell-based; design: key: (−): No binding; (+): Weak binding; (++): Moderate binding; (+++): Strong binding; settings: primary antibody 1 ug/ml
Method: as §1

IL-33 signaling = IL-33 signaling reporter cell assay (HEK-Blue IL-33 cells); format: cell-based; settings: antibody 1-10 μg/ml, IL-33 0.5 ng/ml
Method: FIGS. 7A and 7B show blockage of IL-33 signaling by anti-IL1RAP antibodies. HEK-Blue IL-33 cells (Invivogen, CA) were harvested and plated in technical duplicates at a density of 50,000 cells per well in a 96-well plate. Antibodies, or a corresponding human IgG1 control antibody, was added to the wells in a serial dilution starting at 10 μg/ml (FIG. 7A), or a concentration of 1 and 10 μg/ml (FIG. 7B). After incubating cells with antibodies for 30 minutes, IL-33 was added to a final concentration of 0.5 ng/ml, and the plate was incubated overnight. 24 hours later, substrate was added to the supernatants, and samples were analyzed for absorbance at 620 nm. CBIgG1 (anti-hen egg lysozyme antibody, CrownBio™) was included as a negative control.
(§3) HEK-Blue IL-33 cells (Invivogen, CA) were harvested and plated in technical duplicates at a density of 50,000 cells per well in a 96-well plate. antibodies, or a corresponding human IgG1 control antibody was added to the wells in a concentration range of […]. After incubating cells with antibodies for 30 minutes, IL-33 was added to a final concentration of 0.5 ng/ml, and the plate was incubated overnight. To examine whether any of the antibodies were able to induce ST2 activation in the absence of IL-33, samples were incubated with 10 μg/mL antibody without addition of the ligand. The following day, substrate was added to the supernatants, and samples were analyzed for absorbance at 620 nm.

IL-1β signaling = assay: IL-1 signaling reporter cell assay (HEK-Blue IL-1β cells), IL-1β; format: cell-based
Method: as §3, with “IL-1β” for “IL-33”, “plate. IL1RAP” for “plate.”, “IL-1R” for “ST2”, “IL-1β,” for “IL-33,”

Karpas 299 = assay: Flow cytometry binding to endogenous cell line Karpas 299; format: cell-based, human; design: key to binding to Karpas 299 by flow cytometry: (−): No binding; (+): Weak binding; (++): Moderate binding; (+++): Strong binding; settings: for binding to Karpas 299 by flow cytometry: primary antibody 1 ug/ml
Method: as §1, §2

IL-1α signaling = assay: IL-1 signaling reporter cell assay, IL-1α; format: cell-based; settings: serial dilution of antibody
Method: as §3, with “IL-1β” for “IL-33”, “plate. IL1RAP” for “plate.”, “IL-1R” for “ST2”, “IL-1β,” for “IL-33,”
In addition, serial dilution of IL1RAP antibodies was performed to determine EC50 against IL-1β and IL-1α (FIGS. 6B and 6C). Many of these antibodies, including 37E10_15B5 and 44E5_15C5 can block IL-1β and IL-1α signaling with subnanomolar EC50.

mouse IL1RAP = biological target: T2, mouse IL1RAP (Mus musculus, UniProt Q61730); assay: Flow cytometry binding to 293 cells expressing mouse IL1RAP; format: cell-based; settings: 1 ug/ml
T2 construct: Met1-Val570; host or cells: HEK-293T
T2 sequence (Q61730 21-570): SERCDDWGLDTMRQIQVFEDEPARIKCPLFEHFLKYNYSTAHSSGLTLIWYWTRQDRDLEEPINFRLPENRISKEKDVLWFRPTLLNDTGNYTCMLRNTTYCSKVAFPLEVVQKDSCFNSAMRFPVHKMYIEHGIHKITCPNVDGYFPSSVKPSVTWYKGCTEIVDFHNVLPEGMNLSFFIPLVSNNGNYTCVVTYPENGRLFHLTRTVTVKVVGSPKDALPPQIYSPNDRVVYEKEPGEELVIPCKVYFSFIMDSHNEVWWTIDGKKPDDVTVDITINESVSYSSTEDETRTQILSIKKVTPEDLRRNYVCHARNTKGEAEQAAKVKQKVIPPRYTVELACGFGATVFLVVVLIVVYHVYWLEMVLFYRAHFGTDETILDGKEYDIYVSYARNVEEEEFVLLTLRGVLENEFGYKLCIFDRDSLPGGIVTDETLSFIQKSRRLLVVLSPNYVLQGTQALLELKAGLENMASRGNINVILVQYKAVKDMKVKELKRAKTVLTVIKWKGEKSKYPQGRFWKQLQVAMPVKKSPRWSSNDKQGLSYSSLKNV
Method: (§4) 293T cell line was purchased from American Type Culture Collection (ATCC). 293T cells expressing human, Macaca fascicularis, rat, and mouse IL1RAP were maintained in DMEM medium (Invitrogen) with 10% fetal bovine serum (FBS) (Sigma) in the presence of 2 ug/ml puromycin (Invitrogen).
as §1

rat IL1RAP = biological target: T3, rat IL1RAP (Rattus norvegicus, UniProt Q63621); assay: Flow cytometry binding to 293 cells expressing rat IL1RAP; format: cell-based; settings: 1 ug/ml
T3 construct: Met1-Val570; host or cells: HEK-293T
T3 sequence (Q63621 21-570): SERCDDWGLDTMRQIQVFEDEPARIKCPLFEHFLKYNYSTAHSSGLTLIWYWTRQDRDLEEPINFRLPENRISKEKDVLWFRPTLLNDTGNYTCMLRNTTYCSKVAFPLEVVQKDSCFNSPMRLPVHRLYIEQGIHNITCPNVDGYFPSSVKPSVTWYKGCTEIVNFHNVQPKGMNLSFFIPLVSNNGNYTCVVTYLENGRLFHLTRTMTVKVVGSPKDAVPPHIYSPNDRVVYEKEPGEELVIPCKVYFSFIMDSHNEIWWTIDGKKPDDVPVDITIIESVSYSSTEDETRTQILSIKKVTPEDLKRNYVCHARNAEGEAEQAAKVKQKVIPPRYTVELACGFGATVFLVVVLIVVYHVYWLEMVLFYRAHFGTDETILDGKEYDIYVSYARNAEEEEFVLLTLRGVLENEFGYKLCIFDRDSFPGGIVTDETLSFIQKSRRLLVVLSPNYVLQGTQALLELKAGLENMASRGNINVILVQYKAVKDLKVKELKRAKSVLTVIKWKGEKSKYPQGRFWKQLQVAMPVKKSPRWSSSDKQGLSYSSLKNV
Method: as §4, §1

MOLT3 = assay: Flow cytometry binding to endogenous cell line MOLT3; format: cell-based; design: key: (−): No binding; (+): Weak binding; (++): Moderate binding; (+++): Strong binding; settings: primary antibody 1 ug/ml
Method: as §1

[1] = system: TARC level in PBMCs stimulated with HDM and IL-13; assay: TARC level in PBMCs treated by HDM and IL-13; format: cell-based, human; settings: HDM 10 ug/ml, IL-13 0.5 nM; tralokinumab 10 to 0.16 ug/ml; BFB759 1 ug/ml in combination
Method: 0.2 million PBMCs in 100 ul medium (RPMI1640, 10% heat-inactivated FBS) were added to each well of 96 well cell culture plate. BFB759 at multiple concentrations in 50 ul medium was added to the wells. The cells were incubated in the incubator for 45 min. Then, 50 ul HDM solution (final concentration 10 ug/ml) was added to the wells. After 7 days incubation, the supernatant was transferred to a new 96 well plate, and used in TARC ELISA right away, or frozen in −80 C freezer for ELISA later. For the combination studies of BFB759 with other drugs, the single agent or combination of drugs were added to the PBMCs, incubated for 45 min, then HDM solution, or HDM and IL-4 or IL-13 solution were added to the wells. The assay was incubated for 7 days, and the supernatant was harvested for TARC ELISA.
In the data shown in FIG. 16, HDM was used at 10 ug/ml, IL-13 was used at 0.5 nM, BFB759 was used at 1 ug/ml, tralokinumab was titrated from 10 ug/ml to 0.16 ug/ml (4 fold dilution, 4 series). Data shown are mean±s.d.

B2: 24G3_17C5: human anti-IL1RAP antibody, VH SEQ ID NO: 90, VL SEQ ID NO: 93 (antibody, V domains shown)
VH: EVQLLESGGGLVQRGGSLRLSCAASGFTFSSYAMSWVRQAPGKGLEWVSSISGSGDSTNYADSVKGRFTISRDNSKNTLHLQMNSLRAEDTAVYYCVRDYYYGMDVWGHGTTVTVSS
VL: EIVLTQSPATLSLSPGERATLSCRASQSVNSYLAWYQQKPGQAPRLLIYDASNRATGIPARFSGSGSGTDFTLTISSLEPEDFAVYYCQQRSYWPITFGQGTRLEIK
binding to EOL-1 by flow cytometry (EOL-1): (++) | competition for binding, bin (1) (recombinant human IL1RAP): competed with each other | binding to 293 cells expressing mouse IL1RAP (mouse IL1RAP): bind weakly | binding to 293 cells expressing rat IL1RAP (rat IL1RAP): bind | binding to Karpas 299 by flow cytometry (Karpas 299): (++)

B4: tralokinumab: IL-13 neutralizing antibody, produced by Bluefin Biomedicine according to the published protein sequence (antibody, chains of the INN, looked up, V domains shown)
VH: QVQLVQSGAEVKKPGASVKVSCKASGYTFTNYGLSWVRQAPGQGLEWMGWISANNGDTNYGQEFQGRVTMTTDTSTSTAYMELRSLRSDDTAVYYCARDSSSSWARWFFDLWGRGTLVTVSS
VL: SYVLTQPPSVSVAPGKTARITCGGNIIGSKLVHWYQQKPGQAPVLVIYDDGDRPSGIPERFSGSNSGNTATLTISRVEAGDEADYYCQVWDTGSDPVVFGGGTKLTVL
inhibition of TARC level in HDM and IL-13 stimulated cells [1]: dose dependent inhibition

B5: 38G11_28A2: human anti-IL1RAP antibody, VH SEQ ID NO: 151, VL SEQ ID NO: 154 (antibody, V domains shown)
VH: EVQLVESGGGLVQPGGSLRLSCAASGFTFSSYWMSWVRQAPGKGLEWVANIKQDGSEKHYVDSVKGRFTISRDNAKNSLYLQMNSLRAEDTAVYYCAREGYFGSGYFDYWGQGTLVTVSS
VL: DIQLTQSPSFLSASVGDRVTITCRASQGISSYLAWYQQKPGKAPKLLIYAASTLQSGVPSRFSGSGSGTEFTLTISSLQPEDFATYYCQQYSFYSHTFGQGTKLEIK
binding to EOL-1 by flow cytometry (EOL-1): (++) | binding to DMS79 by flow cytometry (DMS79; primary antibody 1 ug/ml): (−) | binding to Karpas 299 by flow cytometry (Karpas 299): (++)

Second part, led by results:

competition for binding, bin (2) (recombinant human IL1RAP): competed with each other | EC50 against IL-1β (IL-1β signaling; serial dilution of antibody, reporter assay): subnanomolar | EC50 against IL-1α (IL-1α signaling): subnanomolar
B1: 44E5_15C5: human anti-IL1RAP antibody, VH SEQ ID NO: 71, VL SEQ ID NO: 73 (antibody, V domains shown)
VH: QVQLVESGGGVVQPGRSLRLSCAASGFTFRSHGMHWVRQAPGKGLEWVAVIWYDGSSDYYADSVKGRFTISRDNSKNTLFLQMNSLSAEDTAVYYCARENVYGSGWFFDYWGQGTLVTVSS
VL: EIVMTQSPATLSVSPGERASLSCRASQSVGSNLAWYQQKPGQAPRLLIFGASTRATGIPARFSGSRSGTEFTLTISSLQSEDFALYYCQQYNNWPPWTFGQGTKLEIK
binding to IL1RAP positive cell line EOL1 (EOL-1; flow cytometry, FIG. 2): specific binding | binding to EOL-1 by flow cytometry (EOL-1): (+++) | binding to IL1RAP negative cell line DMS79 (DMS79; flow cytometry, FIG. 2): lack of binding | binding to H69 by flow cytometry (H69): (−) | inhibition of IL-33 signaling (IL-33 signaling): partially inhibit | inhibition of IL1R1 / IL-1 signaling (IL-1β signaling; HEK-Blue IL-1β cells, antibody 1-10 pg/ml, IL-1β 0.5 ng/ml): potent inhibition | binding to IL1RAP positive cell line Karpas 299 (Karpas 299; flow cytometry, FIG. 2): specific binding

competition for binding, bin (1) (recombinant human IL1RAP): competed with each other | binding to 293 cells expressing rat IL1RAP (rat IL1RAP): bind
B3: 34C11_21B2: human anti-IL1RAP antibody, VH SEQ ID NO: 40, VL SEQ ID NO: 44 (antibody, V domains shown)
VH: EVQVVESGGGLVQPGGSLRLSCAASGFTFRSYWMSWVRQAPGKGLEWVANIKQDGSERHYVDSVKGRFTISRDNAKTSLYLQMSSLRAEDTAVYYCAREGYFGSGYFDYWGQGTLVTVSS
VL: DIQMTQSPSTLSASVGDRVIITCRASQSISRGLAWYQQKPGKAPKLLIYKASNLESGVPSRFSGSGSGTEFTLTISSLQPDDFAAYYCQQYSYYSHTFGQGTKLEIK
binding to EOL-1 by flow cytometry (EOL-1): (+++) | binding to MOLT3 by flow cytometry (MOLT3): (+) | binding to Karpas 299 by flow cytometry (Karpas 299): (+++)
